From doi:10.1101/2022.05.05.490853 (bioRxiv, 2022)
Changes are numbered by the printed parent chain. Like-named read-outs stand apart in the source and are kept apart here.

B1: recombinant monoclonal antibody 1D11 (re-cloned, second most abundant VH and VL) (antibody, V domains shown)
VH: QSLVESGGGLVQPEGSLTLTCKASGFSFSSGYDMCWVRQAPGKGLEYIACIDAGDDITHYASWVKGRFTVSKTSSTTVTLQLNSLTVADTATYFCGRFWDLWGPGTLVTVSS
VL: SSVLTQTPSPVSAAVGGTVTINCQSSQSVYDSTWLGWYQQKPGQPPKLLIYKASNLASGVPSRFKGSGSGTHFTLTISDLECDDAATYYCVGGYSGSVDNWAFGGGTEVVVK
B2: antibody in the supernatant of B cell line 1D11 (antibody, V domains shown)
VH: B1 VH
VL: B1 VL
B3: recombinant monoclonal antibody 15E2 (antibody, V domains shown)
VH: QSLEESGGGLFKPTDTLTLTCTVSGIDLSSYAMIWVRQAPGKGLEWIGYIWSSGRIWYASWAKGRFTISRTSTTVDLKLASPTTEDTATYFCARLWDIWGPGTLVTVSS
VL: AQVLTQTPSSVSAAVGGTVTISCQASQSLYNGVNLAWYQQKPGQPPKLLIFGASNLESGVSSRFRGSGSGTQFTLTISGVQCDDAATYYCLGEFSCSSADCLAFGGGTEVVVK
B4: antibody in the supernatant of B cell line 15E2 (antibody, V domains shown)
VH: B3 VH
VL: B3 VL
B5: recombinant monoclonal antibody 17A8 (antibody, V domains shown)
VH: QSVEESGGRLVTPGTPLTLTCTVSGFPLSSYSMAWVRQAPGKGLEYIGFINTDGSAYYASWAKGRITISKTSTTVELKITSPTTEDTATYFCGTGNIWGPGTLVTVSS
VL: AQVLTQTPSSVSAAVGGTVTINCQASQSVSNNNVLAWFQQKPGQPPKRLIYSALTLDSGVPSRFKGSGSGTHFTLTISGVQCDDAATYYCAGGYDCSSNDCIAFGGGTEVVVK
B6: antibody in the supernatant of B cell line 17A8 (antibody, V domains shown)
VH: B5 VH
VL: B5 VL
B7: recombinant monoclonal antibody 28D3 (antibody, V domains shown)
VH: B5 VH with P27S, A34G, F49M, N51I, T52S, D53N, G54N, A56T
VL: B5 VL with S9A, V29T, V34A, A103T
B8: antibody in the supernatant of B cell line 28D3 (antibody, V domains shown)
VH: B5 VH with P27S, A34G, F49M, N51I, T52S, D53N, G54N, A56T
VL: B5 VL with S9A, V29T, V34A, A103T

Columns and labels:
[1] = target: T1, recombinant VlsE protein (vlsE cassette region of B. burgdorferi B31-5A3) (Borreliella burgdorferi B31, clone …, UniProt O06878); experiment: ELISA
[2] = target: T1, recombinant VlsE protein (vlsE cassette …); experiment: ELISA; remark: listed apart in the source

| Binder | binding result [1] | binding result [2] |
| --- | --- | --- |
| B1 | binds |  |
| B2 |  | binds |
| B3 | binds |  |
| B4 |  | binds |
| B5 | binds |  |
| B6 |  | binds |
| B7 | binds |  |
| B8 |  | binds |
